# B1: Trypsin: protease, applied alone as control after neutralization with 1.25% FCS (protein, UniProt P00760 24-246, looked up)
# Serine protease 1: IVGGYTCGANTVPYQVSLNSGYHFCGGSLINSQWVVSAAHCYKSGIQVRLGEDNINVVEGNEQFISASKSIVHPSYNSNTLNNDIMLIKLKSAASLNSRVASISLPTSCASAGTQCLISGWGNTKSSGTSYPDVLKCLKAPILSDSSCKSAYPGQITSNMFCAGYLEGGKDSCQGDSGGPVVCSGKLQGIVSWGSGCAQKNKPGVYTKVCNYVSWIKQTIASN
# B2: Proteinase K: protease, applied alone as control after thermal inactivation (protein, UniProt P06873 106-384, looked up)
# Proteinase K: AAQTNAPWGLARISSTSPGTSTYYYDESAGQGSCVYVIDTGIEASHPEFEGRAQMVKTYYYSSRDGNGHGTHCAGTVGSRTYGVAKKTQLFGVKVLDDNGSGQYSTIIAGMDFVASDKNNRNCPKGVVASLSLGGGYSSSVNSAAARLQSSGVMVAVAAGNNNADARNYSPASEPSVCTVGASDRYDRRSSFSNYGSVLDIFGPGTSILSTWIGGSTRSISGTSMATPHVAGLAAYLMTLGKTTAASACRYIADTANKGDLSNIPFGTVNLLAYNNYQA
# modifications: heat-inactivated
# Tested on: C. albicans
# Test: Broth microdilution, impact of protease inactivation conditions (growth %)
# Assay type: cell-based, Candida albicans
Molecule,Growth [%] (0.125 µM protease alone + 1.25 % FCS),"Growth [%] (0.125 µM protease alone + 100 °C, 15 min)"
B1,136.7 ± 14,–
B2,–,86 ± 4.5

# From PMC8226839, “New Perspectives in the Antimicrobial Activity of the Amphibian Temporin B: Peptide Analogs Are Effective Inhibitors of Candida albicans Growth” (Journal of Fungi, 2021)
